This experiment has as its target RaTG13 S-protein receptor-binding domain fused to the Fc domain of human IgG1 (bat coronavirus RaTG13). Put plainly: SPR.

The substance “soluble monomeric human ACE2-NN (enzymatically inactive human ACE2 lacking its active-site histidines) (domain or fragment)” displayed a dissociation constant (Kd) greater than 35 µM.

As a reminder, the Kd is the constant that tells how readily two partners part at equilibrium. A high value points to weaker binding.
